Target: T1, Programmed cell death 4 (Pdcd4), endogenous in HEK293 cells (human (endogenous in HEK293), UniProt Q53EL6 1-469)
T1 sequence (looked up): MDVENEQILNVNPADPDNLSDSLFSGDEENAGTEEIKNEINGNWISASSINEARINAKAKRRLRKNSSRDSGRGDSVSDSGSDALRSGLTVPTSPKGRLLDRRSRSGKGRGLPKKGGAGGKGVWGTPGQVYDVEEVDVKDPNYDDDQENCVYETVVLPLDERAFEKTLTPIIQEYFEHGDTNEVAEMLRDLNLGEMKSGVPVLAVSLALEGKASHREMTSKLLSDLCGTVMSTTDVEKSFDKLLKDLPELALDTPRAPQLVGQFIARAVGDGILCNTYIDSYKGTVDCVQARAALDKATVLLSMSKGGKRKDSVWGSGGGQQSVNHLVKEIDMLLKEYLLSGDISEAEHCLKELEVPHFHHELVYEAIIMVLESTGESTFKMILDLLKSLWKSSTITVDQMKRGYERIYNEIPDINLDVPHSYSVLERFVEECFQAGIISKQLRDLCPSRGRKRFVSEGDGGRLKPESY
Assay: cell-based or functional assay

B1: β-transducin repeat-containing protein 1 (β-TrCP1), overexpressed in HEK293 cells (natural protein, UniProt Q9Y297 1-605, looked up)
chain: MDPAEAVLQEKALKFMCSMPRSLWLGCSSLADSMPSLRCLYNPGTGALTAFQNSSEREDCNNGEPPRKIIPEKNSLRQTYNSCARLCLNQETVCLASTAMKTENCVAKTKLANGTSSMIVPKQRKLSASYEKEKELCVKYFEQWSESDQVEFVEHLISQMCHYQHGHINSYLKPMLQRDFITALPARGLDHIAENILSYLDAKSLCAAELVCKEWYRVTSDGMLWKKLIERMVRTDSLWRGLAERRGWGQYLFKNKPPDGNAPPNSFYRALYPKIIQDIETIESNWRCGRHSLQRIHCRSETSKGVYCLQYDDQKIVSGLRDNTIKIWDKNTLECKRILTGHTGSVLCLQYDERVIITGSSDSTVRVWDVNTGEMLNTLIHHCEAVLHLRFNNGMMVTCSKDRSIAVWDMASPTDITLRRVLVGHRAAVNVVDFDDKYIVSASGDRTIKVWNTSTCEFVRTLNGHKRGIACLQYRDRLVVSGSSDNTIRLWDIECGACLRVLEGHEELVRCIRFDNKRIVSGAYDGKIKVWDLVAALDPRAPAGTLCLRTLVEHSGRVFRLQFDEFQIVSSSHDDTILIWDFLNDPAAQAEPPRSPSRTYTYISR
For B1, the “endogenous Pdcd4 protein level (western densitometry, relative to the DMSO control) in HEK293 cells treated 8 h with TPA (10 nM) and erioflorin (0.625–5 µM)” value was 121 % of DMSO control.

From article PMC3462793, “Erioflorin Stabilizes the Tumor Suppressor Pdcd4 by Inhibiting Its Interaction with the E3-ligase β-TrCP1” (PLoS ONE, 2012)
